In article PMC7530888 (Nucleic Acids Research, 2020):

Tests used:
[1] = Small angle X-ray scattering; format: physicochemical, M. tuberculosis; settings: from P(r); for Dmax: BM29 ESRF, 10°C, pH 8.0
[2] = format: physicochemical, M. tuberculosis; settings: Superdex 200 increase 10/30; pH 8.0; calibrated with protein standards
MtbXthA [3] = experiment: Effect on AP-endonuclease activity of MtbXthA; format: biochemical, M. tuberculosis; settings: N1, MtbXthA 10 nM, added protein 5-100 nM; pH 7.8, 37°C, 10 min
[4] = tested on: apurinic/ apyrimidinic DNA (AP-DNA) substrate (N1); experiment: AP-endonuclease assay on THF AP-DNA; format: biochemical; settings: no MtbXthA
mimic DNA substrate (L3) = experiment: Ligation of true incised abasic site mimic with 5′-dRP; format: biochemical; settings: L3 treated with uracil DNA glycosylase; MtbLigA 0.01-20 nM
MtbXthA^ID = experiment: Effect on endonuclease activity of MtbXthA^ID; format: biochemical, M. tuberculosis; settings: N1 20 nM, MtbXthA^ID 10 nM, MtbLigA 5-100 nM
[5] = tested on: nicked duplex DNA substrate (L1); experiment: In vitro ligation of nicked duplex DNA; format: biochemical; settings: L1 10 nM, MtbLigA 5 nM alone; 50 μM NAD^+, pH 7.8, 37°C, 3 min; SD ±2.5
MtbXthA [6] = experiment: SEC co-elution with MtbXthA; format: binding, M. tuberculosis; settings: Superdex 200; pH 8.0; SDS-PAGE of fractions
[7] = tested on: nicked duplex DNA substrate (L2); experiment: Ligation of nicked AP-DNA with 5′p-THF; format: biochemical; settings: L2 10 nM, MtbLigA 0.01-20 nM
[8] = tested on: THF containing AP-DNA (N1); experiment: Gel shift assay, THF AP-DNA; format: binding; settings: N1 10 nM, MtbLigA 0-40 µM

Substance	Dmax [1]	Stoke's radii [2]	effect on AP-endonuclease activity of MtbXthA (MtbXthA [3])	Dmax in presence of nicked DNA ([1]; presence of nicked DNA substrate (S1))	effect on AP-DNA substrate alone (in words) [4]	ligated product (in words) (mimic DNA substrate (L3))	effect on incision activity of MtbXthA^ID (MtbXthA^ID)	DNA ligation [5]	interaction with MtbXthA by SEC (MtbXthA [6])	ligation of nicked AP-DNA (in words) [7]	complex with THF AP-DNA (in words) [8]
MtbLigA+Nicked DNA: MtbLigA in complex with 27-mer nicked DNA (S1)	14.79 nm	3.19 nm	–	–	–	–	–	–	–	–	–
BSA: BSA, control for macromolecular crowding [reference compound]	–	–	exerted no effect	–	–	–	–	–	–	–	–
MtbLigA: M. tuberculosis NAD^+-dependent DNA ligase A, full-length	16.7 nm	4.02 nm	progressive decrease in product formation	14.79 nm	no effect on the AP-DNA substrate	progressive increase in the ligated product	reduction in incision activity	75%	co-eluted	could ligate the nicked AP-DNA	did not form a complex with THF containing AP-DNA
